Assay results: publication PMC11022532

Target: CslA-His12 (cellulose synthase-like protein CslA from Streptomyces lividans, full length, C-terminal 12-histidine tag) (Streptomyces lividans)

- activity (UDP release) of the CslA–GlxA^12-261 complex against the wild-type CslA–GlxA complex: 40%
Substance: Flag-tagged GlxA^12-261 (truncated GlxA lacking Region-2 and Domain 3) (domain or fragment)
